Data: PMC4942676
Each block holds one substance with its values, some of them ahead of it.

Columns and labels:
[1] = target: FLAG-tagged construct containing the Omp25 TMD, translated in the PURE system; assay: co-sedimentation; Omp25 TMD construct translated in the PURE system with 35S-methionine and 15 uM recombinant chaperone; sucrose gradient, autoradiography
[2] = target: UBQLN1 loaded with Ub-Omp25 (UniProt Q9UMX0); assay: pull-down; client (Omp25 or Ub-Omp25) translated in lysate lacking ubiquitin, UbcH5 and the major TMD-binding factors, supplemented with 40 nM recombinant FLAG-tagged UBQLN1 variant; affinity purified via the FLAG tag; autoradiography for the client, immunoblot for proteasome subunit α7
[3] = target: UBQLN UBL domain UBL (Homo sapiens) (UniProt Q9UMX0); conditions: cited from earlier work

stoichiometry N [1]: 1
Substance: recombinant UBQLN1 (FLAG-tagged) (from UniProt Q9UMX0 1-589) (natural protein)

fold proteasome association relative to UBQLN1 loaded with Omp25 [2]: 2 to 3 fold
Substance: proteasome, endogenous in rabbit reticulocyte lysate (from UniProt G1SZ14 1-326) (complex)

Substance: UBQLN UBA domain UBA (from UniProt Q9UMX0)
Kd [3]: 80 µM
